Experimental data reported in article PMC3660137.

Substrate: CCCCCC(O)/C=C/C=O
Experiment: LC/MS of GSHNE conjugate, initial rate
Assay type: biochemical, Oncorhynchus kisutch
Details: 1 mM GSH, 30 °C, 10–150 μM HNE

B1: OlfGST pi; OkGST pi; GST pi (Oncorhynchus kisutch) (protein)
chain: MGPYTITYFGVRGRCGAMRIMMADQGQEWKEILMDFADWTKGDLKASCVFGQLPKFEDGGLVLYQSNAILRHLGRNHDAYGKDGKEAARIDMMCDGVEDLRLKYGKMIYQEYDTGKDQYIKDLPNHLDKFEAVMAKNKTGFLVGDKPSFADYSLFEVLLNHLVLCSSCLDTSPSLKSFVEKMSARPKIKAFLGSDAYKKLPINGNGKQ
  Km: 160 ± 60 µM
  Vmax: 0.5 µmol/min/mg
  kcat: 0.37 ± 0.09 s⁻¹
  kcat/Km: 2300 ± 1100 M⁻¹ s⁻¹
